US20140286975A1

How the values were obtained:
CD40L = CD40L (UniProt P29965); experiment: cell-based or functional assay
CD40 = CD40 (UniProt P25942); experiment: cell-based or functional assay
Sequence of UniProt P25942 (P25942 21-277 limits assumed): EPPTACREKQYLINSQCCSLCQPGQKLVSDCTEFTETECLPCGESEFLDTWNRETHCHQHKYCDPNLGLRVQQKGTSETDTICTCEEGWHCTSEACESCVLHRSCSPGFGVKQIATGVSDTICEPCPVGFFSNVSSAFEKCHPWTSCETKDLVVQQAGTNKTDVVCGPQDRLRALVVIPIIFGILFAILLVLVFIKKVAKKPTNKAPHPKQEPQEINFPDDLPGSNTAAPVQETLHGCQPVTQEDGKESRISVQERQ

Sequence of UniProt P29965 (P29965 whole entry): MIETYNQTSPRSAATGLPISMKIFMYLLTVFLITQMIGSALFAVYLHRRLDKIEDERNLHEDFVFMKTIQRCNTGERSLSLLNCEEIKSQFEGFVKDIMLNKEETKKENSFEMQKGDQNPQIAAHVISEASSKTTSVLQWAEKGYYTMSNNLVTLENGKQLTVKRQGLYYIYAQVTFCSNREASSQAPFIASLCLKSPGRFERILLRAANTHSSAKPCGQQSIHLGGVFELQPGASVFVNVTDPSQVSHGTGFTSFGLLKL

IFN-γ ELISpots upon recall, T-lymphocytes primed and restimulated by doubly-loaded dendritic cells (CD40L)	IFN-γ ELISpots upon restimulation of T-cells primed by doubly-loaded DCs (CD40)	IFN-γ ELISpots upon restimulation of T-cells primed by lysate-loaded DCs (CD40)	IFN-γ ELISpots upon restimulation of T-cells primed by mRNA-loaded DCs (CD40)	IFN-γ ELISpots upon restimulation, self-antigen controls (fold increase) (CD40)	Substance
68 % decrease	–	–	–	–	anti-CD40L clone 40804 (R&D Systems) (antibody)
–	8 % increase	51 % increase	86 % increase	6	antiCD40 clone 82111 (R&D Systems) (antibody)
